In patent US20120082679A1 (Merck Sharp & Dohme, published 2012):
Numbering of substitutions follows the chain as printed. Where two headings read alike, the source gives them in different places.

B1: 3BX5C01 (Fab, V domains shown)
VH: QVQLVQSGAEVKKPGESLKISCKGSGYSFTSYGISWVRQMPGKGLEWMGMIDPSDSFTTYSPSFQGQVTISADKSISTAYLQWSSLKASDTAMYYCARGYYFTYALQPMDHWGQGTLVTVSS
VL: DIELTQPPSVSVAPGQTARISCSGDNLRDYIVHWYQQKPGQAPVLVIYDDSNRPSGIPERFSGSNSGNTATLTISGTQAEDEADYYCGFDNGGDIDVFGGGTKLTVLG
notes: also called 3BX5C01 Fab
B2: 1CX1G08 (Fab, V domains shown)
VH: QVQLVESGGGLVQPGGSLRLSCAASGFTFSDYWVSWVRQAPGKGLEWVSFISYDGSSTYYADSVKGRFTISRDNSKNTLYLQMNSLRAEDTAVYYCARTYFEGVDVWGQGTLVTVSS
VL: DIELTQPPSVSVAPGQTARISCSGDNIGTYYVHWYQQKPGQAPVLVIYDDSNRPSGIPERFSGSNSGNTATLTISGTQAEDEADYYCGTWDNTSFNLVFGGGTKLTVLG
notes: also called 1CX1G08 Fab
B3: 3CX4B08 (Fab, V domains shown)
VH: QVQLVESGGGLVQPGGSLRLSCAASGFTFSNYTMNWVRQAPGKGLEWVSFISSSSSETYYADSVKGRFTISRDNSKNTLYLQMNSLRAEDTAVYYCARGYGDMVDLWGQGTLVTVSS
VL: DIELTQPPSVSVAPGQTARISCSGDSIPTYYVAWYQQKPGQAPVLVIYSDTDRPSGIPERFSGSNSGNTATLTISGTQAEDEADYYCQSFDNHGYHVFGGGTKLTVLG
notes: also called 3CX4B08 Fab
B4: 3CX2A06 (Fab, V domains shown)
VH: QVQLVQSGAEVKKPGESLKISCKGSGYSFSNFWIAWVRQMPGKGLEWMGIIDPSDSWTRYSPSFQGQVTISADKSISTAYLQWSSLKASDTAMYYCARGDGQDFDNWGQGTLVTVSS
VL: DIQMTQSPSSLSASVGDRVTITCRASQNINSYLNWYQQKPGKAPKLLIYAASSLQSGVPSRFSGSGSGTDFTLTISSLQPEDFAVYYCLQNYDLPNTFGQGTKVEIKR
notes: No SPR values are printed for this Fab; also called 3CX2A06 Fab
B5: 3CX3D02 (Fab, V domains shown)
VH: QVQLVQSGAEVKKPGESLKISCKGSGYSFTNSWIGWVRQMPGKGLEWMGIIYPSDSYTIYSPSFQGQVTISADKSISTAYLQWSSLKASDTAMYYCARGGGYYYALMDVWAQGTLVTVSS
VL: B4 VL with N28T, N30S, S31T, Y32W, V85T, N91D, Y92S, D93S, N96L
notes: also called 3CX3D02 Fab

Legend:
[1] = molecular target: T1, recombinant human PCSK9, V5-, His-tagged (human, UniProt Q8NBP7 31-692, limits assumed); assay: SPR (Biacore 2000), Direct (PCSK9 immobilized, Fab in mobile phase), mean N = 2
T1 construct: Purified recombinant tagged protein; The background says that secreted PCSK9 is autocatalytically cleaved and the cleaved prodomain stays associated; also called hPCSK9; hPCSK9v5His; not shown: V5 and His tags

[2] = molecular target: T1, recombinant human PCSK9, V5-, His-tagged; assay: cell-based or functional assay
[3] = molecular target: T1, recombinant human PCSK9, V5-, His-tagged; assay: cell-based or functional assay; remark: listed apart in the source
[4] = molecular target: T2, V5-, His-tagged secreted alkaline phosphatase protein (SEAP) (UniProt P05187 23-511); assay: ELISA, immobilized V5-, His-tagged SEAP, Fab culture supernatant, HRP anti-Fab detection
T2 construct: Tag control antigen, expressed in the same cells as the PCSK9 antigen and similarly purified; not shown: V5 and His tags
Procedure: Cultures of individual transformants were IPTG-induced and grown overnight for Fab expression. Culture supernatants (candidate Fabs) were incubated with purified V5-, His-tagged PCSK9 protein immobilized in wells of 96-well Nunc Maxisorp plates, washed with 0.1% Tween™ 20 in PBS using a plate washer, incubated with HRP-coupled anti-Fab antibody, and washed again with PBS/Tween™ 20. Bound HRP was detected by addition of […] substrated, and A₄₅₀ values of wells were read with a plate reader.
EsB antigen was bound to three wells of the plate and subsequently incubated with anti-EsB Fab. To control for Fabs reacting with the V5 or His tags of the recombinant PCSK9 antigen, parallel ELISAs were performed using V5-, His-tagged secreted alkaline phosphatase protein (SEAP) expressed in the same cells as the original PCSK9 antigen and similarly purified. Putative PCSK9-reactive Fabs were identified as yielding>3× background values when incubated with PCSK9 antigen but negative when incubated with SEAP. Clones scoring as PCSK9-reactive in the first round of screening were consolidated onto a single plate, re-grown in triplicate, re-induced with IPTG, and re-assayed in parallel ELISAs vs. PCSK9 and SEAP. Positive and negative controls were included as described above. Clones scoring positive in at least 2 of 3 replicates were carried forward into subsequent characterizations. In cases of known or suspected mixed preliminary clones, cultures were re-purified by streaking for single colonies on 2×YT plates with chloramphenicol, and liquid cultures from three or more separate colonies were assayed again by ELISAs in triplicate as described above.

[5] = molecular target: T1, recombinant human PCSK9, V5-, His-tagged; assay: SPR (Biacore 2000), Direct & Ab Capture, mean N = 3
Procedure: SPR measurements were performed using a Biacore™ (Pharmacia Biosensor AB, Uppsala, Sweden) 2000 system. Sensor chip CM5 and Amine coupling kit for immobilization were from Biacore™.
Anti-Fab IgG (Human specific) was covalently coupled to surfaces 1 and 2 of a Sensor Chip CM5 via primary amine groups, using the immobilization wizard with the “Aim for immobilization” option. A target immobilization of 5000 RU was specified. The wizard uses a 7 minute activation with a 1:1 mixture of 100 mM NHS and 400 mM EDC; injects the ligand in several pulses to achieve the desired level, then deactivates the remaining surface with a 7 minute pulse of ethanolamine.
Anti-PCSK9 Fabs were captured on capture surface 2 and surface 1 was used as a reference for kinetic studies of Fab:PCSK9 interactions. Fab was captured by flowing a 500 ng/ml solution at 5 μl/min for 1-1.5 minutes to reach a target RL for an Rₘₐₓ of 100-150 RU for the reaction. 5-10 concentrations of hPCSK9v5H is or mPCSK9v5H is antigens were flowed across the surface at 30 μl/minute for 3-4 minutes. 15-60 minutes dissociation time was allowed before regeneration of the Anti-Fab surface with a 30 second pulse of 10 mM glycine pH 2.0.

[6] = molecular target: T1, recombinant human PCSK9, V5-, His-tagged; assay: cell-based or functional assay; remark: listed apart in the source
[7] = molecular target: T1, recombinant human PCSK9, V5-, His-tagged; assay: cell-based or functional assay; remark: listed apart in the source
[8] = molecular target: T1, recombinant human PCSK9, V5-, His-tagged; assay: cell-based or functional assay; remark: listed apart in the source
[9] = molecular target: T1, recombinant human PCSK9, V5-, His-tagged; assay: cell-based or functional assay; remark: listed apart in the source

T2 sequence (P05187 23-511): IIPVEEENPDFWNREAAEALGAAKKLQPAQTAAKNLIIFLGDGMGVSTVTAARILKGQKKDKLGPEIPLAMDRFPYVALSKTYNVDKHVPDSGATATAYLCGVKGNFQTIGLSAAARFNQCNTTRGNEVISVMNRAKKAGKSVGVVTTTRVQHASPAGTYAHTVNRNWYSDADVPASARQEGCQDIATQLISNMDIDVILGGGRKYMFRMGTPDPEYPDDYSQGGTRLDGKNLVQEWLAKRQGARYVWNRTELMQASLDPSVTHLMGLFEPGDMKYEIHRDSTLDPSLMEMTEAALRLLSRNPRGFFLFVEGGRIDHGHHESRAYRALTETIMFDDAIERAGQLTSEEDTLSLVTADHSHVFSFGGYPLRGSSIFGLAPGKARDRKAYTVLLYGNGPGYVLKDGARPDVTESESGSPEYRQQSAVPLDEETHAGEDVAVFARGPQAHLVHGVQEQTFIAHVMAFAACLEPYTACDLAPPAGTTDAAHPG
T1 sequence (Q8NBP7 31-692 limits assumed): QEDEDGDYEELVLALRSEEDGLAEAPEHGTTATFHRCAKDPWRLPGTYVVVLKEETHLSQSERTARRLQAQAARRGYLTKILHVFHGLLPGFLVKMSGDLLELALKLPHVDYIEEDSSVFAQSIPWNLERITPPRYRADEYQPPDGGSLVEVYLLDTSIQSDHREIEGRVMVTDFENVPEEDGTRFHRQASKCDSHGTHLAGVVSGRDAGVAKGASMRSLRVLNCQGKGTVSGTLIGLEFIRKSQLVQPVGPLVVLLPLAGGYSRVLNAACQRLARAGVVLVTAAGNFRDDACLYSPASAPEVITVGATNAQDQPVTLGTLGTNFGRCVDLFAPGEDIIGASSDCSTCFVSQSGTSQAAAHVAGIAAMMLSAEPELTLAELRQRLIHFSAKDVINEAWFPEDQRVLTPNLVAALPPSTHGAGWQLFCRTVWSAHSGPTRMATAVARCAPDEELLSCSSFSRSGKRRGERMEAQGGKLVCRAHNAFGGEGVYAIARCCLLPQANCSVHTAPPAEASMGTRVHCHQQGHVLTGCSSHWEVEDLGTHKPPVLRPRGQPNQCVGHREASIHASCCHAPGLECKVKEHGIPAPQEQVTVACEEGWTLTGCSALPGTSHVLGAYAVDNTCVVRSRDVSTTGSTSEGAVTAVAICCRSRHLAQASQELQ

Binder | Kd [1] | koff [1] | kon [1] | inhibition of PCSK9-dependent inhibition of cellular LDL uptake (Exopolar assay) [2] | IC50; Fab titrated against fixed PCSK9 (25 µg/ml), recovery of cellular diI-LDL uptake (Exopolar assay) [3] | binding result [4] | Kd [5] | koff [5] | kon [5] | IC50; Fab titrated against fixed PCSK9 (25 µg/ml), recovery of cellular diI-LDL uptake (Exopolar assay) [6] | IC50; Fab titrated against fixed PCSK9 (25 µg/ml), recovery of cellular diI-LDL uptake (Exopolar assay) [7] | IC50; Fab titrated against fixed PCSK9 (25 µg/ml), recovery of cellular diI-LDL uptake (Exopolar assay) [8] | IC50; Fab titrated against fixed PCSK9 (25 µg/ml), recovery of cellular diI-LDL uptake (Exopolar assay) [9]
B1 | 23.1 nM | 0.000642 s⁻¹ | 28000 M⁻¹ s⁻¹ | 25% | 1250 nM | no binding | – | – | – | – | – | – | –
B2 | – | – | – | 53% | – | no binding | 0.55 nM | 0.000176 s⁻¹ | 335000 M⁻¹ s⁻¹ | 267 nM | – | – | –
B3 | – | – | – | 61% | – | no binding | 2.97 nM | 0.000685 s⁻¹ | 233000 M⁻¹ s⁻¹ | – | 127 nM | – | –
B4 | – | – | – | 23% | – | no binding | – | – | – | – | – | 107 nM | –
B5 | 7.01 nM | 0.000876 s⁻¹ | 166000 M⁻¹ s⁻¹ | 23% | – | no binding | – | – | – | – | – | – | 289 nM
